Experimental data reported in patent US20230340160A1 (published 2023).

How the values were obtained:
human FcγRIIIa-V158 [1] = target: T1, human FcγRIIIa-V158 (human, UniProt P08637 17-208); test: SPR (Biacore T100, 25 °C); receptor captured on anti-Penta His, construct as analyte; kinetic; second value in parentheses, not explained
T1 construct: His-tagged recombinant receptor captured on anti-Penta His antibody in SPR; also called huFcγRIIIa-V158-K6H6; HuFcγRIIIa-V158-K6H6; not shown: K6H6 tag, named only by this short form
T1 sequence (P08637 17-208 F176V): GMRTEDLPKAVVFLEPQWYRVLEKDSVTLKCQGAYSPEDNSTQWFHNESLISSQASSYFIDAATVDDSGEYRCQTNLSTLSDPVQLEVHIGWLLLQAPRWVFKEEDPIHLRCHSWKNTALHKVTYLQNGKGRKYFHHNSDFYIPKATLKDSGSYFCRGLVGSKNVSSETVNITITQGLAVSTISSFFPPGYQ
Experimental: (§1) For analyzing interaction of different Fc-variants with human FcγRIIIa-V158 and murine FcγRIV direct coupling of around 6,500 resonance units (RU) of the anti-Penta His antibody (Qiagen) is performed on a CM5 chip at pH 5.0 using the standard amine coupling kit (Biacore, Freiburg/Germany). HuFcγRIIIa-V158-K6H6 and muFcγRIV-aviHis-biotin are captured for 60 s at 4 and 10 nM respectively.
(§2) Constructs with different Fc-mutations are passed through the flow cells for 120 s at a concentration of 1000 nM with a flow rate of 30 µl/min. The dissociation is monitored for 220 s. Bulk refractive index differences are corrected for by subtracting the response obtained in a reference flow cell. Here, the Fc-variants are flown over a surface with immobilized anti-Penta His antibody but on which HBS-EP has been injected rather than HuFcγRIIIa-V158-K6H6 or muFcγRIV-aviHis-biotin. Affinity for human FcγRIIIa-V158 and murine FcγRIV was determined for wild-type Fc using a concentration range from 500 - 4000 nM.
(§3) The steady state response was used to derive the dissociation constant KD by non-linear curve fitting of the Langmuir binding isotherm. Kinetic constants were derived using the Biacore T100 Evaluation Software (vAA, Biacore AB, Uppsala/Sweden), to fit rate equations for 1:1 Langmuir binding by numerical integration.

murine FcγRIV [2] = target: T2, murine FcγRIV (murine); test: SPR (Biacore T100, 25 °C); receptor captured on anti-Penta His, construct as analyte 500 - 4000 nM; steady state
T2 construct: Captured on anti-Penta His antibody in SPR; also called muFcγRIV-aviHis-biotin
T2 sequence (A0A0B4J1G0 21-203): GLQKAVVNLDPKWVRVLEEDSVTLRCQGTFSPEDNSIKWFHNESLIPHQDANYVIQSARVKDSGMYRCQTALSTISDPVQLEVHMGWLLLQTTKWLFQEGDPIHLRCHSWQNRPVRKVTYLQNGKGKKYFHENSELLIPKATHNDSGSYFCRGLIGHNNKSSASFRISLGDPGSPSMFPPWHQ
Experimental: as §1, §2, §3

human FcγRIIIa-V158 [3] = target: T1, human FcγRIIIa-V158; test: as above
Experimental: as §1, §2, §3

human FcγRIIIa-V158 [4] = target: T1, human FcγRIIIa-V158; test: SPR (Biacore T100, 25 °C); His-tagged receptor captured on anti-Penta His, construct as analyte; kinetic 1:1 fit, one concentration (1000 nM)
Experimental: as §1, §2, §3

murine FcγRIV [5] = target: T2, murine FcγRIV; test: SPR (Biacore T100, 25 °C); receptor captured on anti-Penta His, construct as analyte; kinetic
Experimental: as §1, §2, §3

[6] = target: T3, Human EGFR (immobilized on CM5 sensor chip) (human, UniProt P00533 25-645, limits assumed); test: SPR; construct (200 nM) captured on immobilized human EGFR, then CD3 fusion injected (FIG. 18D)
T3 construct: 8000 RU immobilized by amine coupling; also called Epidermal Growth Factor Receptor
Experimental: Analysis of simultaneous binding of the T-cell bispecific constructs to the tumor antigen and the human CD3ε was performed by direct coupling of 1650 resonance units (RU) of biotinylated D3 domain of MCSP on a sensor chip SA using the standard coupling procedure. Human EGFR was immobilized using standard amino coupling procedure. 8000 RU were immobilized on a CM5 sensor chip at pH 5.5.
Different T-cell bispecific constructs were captured for 60 s at 200 nM. Human CD3γ(G₄S)₅CD3ε-AcTev-Fc(knob)-Avi/Fc(hole) was subsequently passed at a concentration of 2000 nM and a flow rate of 40 µl/min for 60 s. Bulk refractive index differences were corrected for by subtracting the response obtained on a reference flow cell where the recombinant CD3ε was flown over a surface with immobilized D3 domain of MCSP or EGFR without captured T-cell bispecific constructs.

Binder	Kd (human FcγRIIIa-V158 [1])	Kd (murine FcγRIV [2])	Kd (human FcγRIIIa-V158 [3])	Kd (human FcγRIIIa-V158 [4])	Kd (murine FcγRIV [5])	binding result [6]
“2+1 IgG scFab, wt” (anti-MCSP/anti-huCD3) (bispecific antibody, LC007 (MCSP, two Fabs) x V9 (CD3, one scFab); wild-type Fc domain with knob/hole; also called Fc-wt) heavy 1: not shown heavy 2: not shown light: DIVLTQSPSSLSASLGDRVTISCSASQGIRNYLNWYQQRPDGTVKLLIYYTSSLHSGVPSRFSGSGSGTDYSLTISNLEPEDIATYYCQQYSKLPWTFGGGTKLEIKRTVAAPSVFIFPPSDEQLKSGTASVVCLLNNFYPREAKVQWKVDNALQSGNSQESVTEQDSKDSTYSLSSTLTLSKADYEKHKVYACEVTHQGLSSPVTKSFNRGEC	1.2 µM	1.5 µM	3.47 µM	0.6 µM	0.576 µM	
“1+1 IgG scFab” (anti-EGFR/anti-huCD3) (bispecific antibody) heavy: not shown DKTHTCPPCPAPEAAGGPSVFLFPPKPKDTLMISRTPEVTCVVVDVSHEDPEVKFNWYVDGVEVHNAKTKPREEQYNSTYRVVSVLTVLHQDWLNGKEYKCKVSNKALGAPIEKTISKAKGQPREPQVCTLPPSRDELTKNQVSLSCAVKGFYPSDIAVEWESNGQPENNYKTTPPVLDSDGSFFLVSKLTVDKSRWQQGNVFSCSVMHEALHNHYTQKSLSLSPGK light: DIQMTQSPSSLSASVGDRVTITCRASQGINNYLNWYQQKPGKAPKRLIYNTNNLQTGVPSRFSGSGSGTEFTLTISSLQPEDFATYYCLQHNSFPTFGQGTKLEIKRTVAAPSVFIFPPSDEQLKSGTASVVCLLNNFYPREAKVQWKVDNALQSGNSQESVTEQDSKDSTYSLSSTLTLSKADYEKHKVYACEVTHQGLSSPVTKSFNRGEC						binds
